Results reported in PMC5038948 (PLoS ONE, 2016).

Columns and labels:
Details in all cases: both partners purified
[1] = target: T1, Recombinant human RAGE Fc chimera (human, UniProt Q15109 23-342); assay: ELISA; CAP37, neutrophil elastase, cathepsin G or Aβ1-42 (0.5 μg/well) or BSA (1000 μg/well) coated on Maxisorp plates in PBS pH 7.4; RAGE Fc chimera 0–3.3 nM in PBST with 0.1% BSA, 37°C, 70 min; bound RAGE detected with goat anti-RAGE; BSA subtracted as background for KD
T1 construct: receptor for advanced glycation end products (RAGE), human, recombinant, fused to Fc; No catalogue number printed; also called receptor for advanced glycation end products; AGER; source: bought: R&D Systems
T1 sequence (Q15109 23-342, change not shown): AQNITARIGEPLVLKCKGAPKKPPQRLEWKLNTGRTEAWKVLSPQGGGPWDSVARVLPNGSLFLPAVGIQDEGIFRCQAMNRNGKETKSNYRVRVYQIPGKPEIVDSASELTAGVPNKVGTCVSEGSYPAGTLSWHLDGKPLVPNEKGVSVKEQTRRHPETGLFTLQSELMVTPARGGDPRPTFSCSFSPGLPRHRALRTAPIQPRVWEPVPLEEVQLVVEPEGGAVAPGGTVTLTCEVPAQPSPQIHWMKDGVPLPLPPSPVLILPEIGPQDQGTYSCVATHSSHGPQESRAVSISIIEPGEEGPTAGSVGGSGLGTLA

[2] = target: T2, Amyloid beta 1–42 (Aβ1–42) (UniProt P05067 672-713); assay: ELISA; CAP37, neutrophil elastase or cathepsin G (0.5 μg/well) or BSA (1000 μg/well) coated; Aβ1-42 0–111 nM in PBST with 0.1% BSA and protease inhibitor cocktail; bound Aβ1-42 detected with anti-APP/Aβ; BSA subtracted as background for KD
T2 construct: amyloid beta 1-42, the cut product of amyloid precursor protein (APP); numbers count on: the Aβ peptide; source: bought: Bachem (95.2% pure by HPLC), dissolved in 1 mM sodium hydroxide

[3] = target: T1, Recombinant human RAGE Fc chimera; assay: ELISA; competition: RAGE Fc chimera coated (0.5 μg/well, 83.3 nM); Aβ1-42 (11 nM) added at the same time as CAP37 (0–2.5 μM) or neutrophil elastase (0–0.5 μM); no protease inhibitors; bound Aβ1-42 detected with anti-APP/Aβ

B1: cathepsin G (enzyme, human, UniProt P08311 21-244, looked up)
chain: IIGGRESRPHSRPYMAYLQIQSPAGQSRCGGFLVREDFVLTAAHCWGSNINVTLGAHNIQRRENTQQHITARRAIRHPQYNQRTIQNDIMLLQLSRRVRRNRNVNPVALPRAQEGLRPGTLCTVAGWGRVSMRRGTDTLREVQLRVQRDRQCLRIFGSYDPRRQICVGDRRERKAAFKGDSGGPLLCNNVAHGIVSYGKSSGVPPEVFTRVSSFLPWIRTTMRS
notes: cathepsin G (CTSG), human, purified from neutrophils, >95% pure by SDS-PAGE; also called CG; CTSG; source: purified from human neutrophils; bought: Athens Research & Technology
[1]
  Kd: 0.45 nM
[2]
  Kd: 20.7 nM

B2: neutrophil elastase (enzyme)
chain: IVGGRRARPHAWPFMVSLQLRGGHFCGATLIAPNFVMSAAHCVANVNVRAVRVVLGAHNLSRREPTRQVFAVQRIFENGYDPVNLLNDIVILQLNGSATINANVQVAQLPAQGRRLGNGVQCLAMGWGLLGRNRGIASVLQELNVTVVTSLCRRSNVCTLVRGRQAGVCFGDSGSPLVCNGLIHGIASFVRGGCASGLYPDAFAPVAQFVNWIDSIIQ
modifications: native N-glycosylated, disulfide-bonded active enzyme from human neutrophils. Limits are not printed: the signal and activation dipeptide are removed (starts at 30), and the C-terminal propeptide is …
[1]
  Kd: 3.25 nM

B3: cationic antimicrobial protein of 37kDa (CAP37) (natural protein, human, UniProt P20160 27-251, looked up)
chain: IVGGRKARPRQFPFLASIQNQGRHFCGGALIHARFVMTAASCFQSQNPGVSTVVLGAYDLRRRERQSRQTFSISSMSENGYDPQQNLNDLMLLQLDREANLTSSVTILPLPLQNATVEAGTRCQVAGWGSQRSGGRLSRFPRFVNVTVTPEDQCRPNNVCTGVLTRRGGICNGDGGTPLVCEGLAHGVASFSLGPCGRGPDFFTRVALFRDWIDGVLNNPGPGPA
notes: cationic antimicrobial protein of 37kDa (CAP37, encoded by AZU1), human, purified from neutrophils, >95% pure by SDS-PAGE; also called AZU1; source: purified from human neutrophils; bought: Athens Research & Technology
[1]
  Kd: 1.26 nM
[3]
  IC50: 1280 nM
[2]
  Kd: 37.9 nM
